Assay: soluble on expression in E. coli; label from the status in PepcDB or PDB records

| Sequence | soluble on expression in E. coli |
| --- | --- |
| MGSDKIHHHHHHMEDNDWKLLKIIEISMKNHEWVPIQDLRRKTGFHEKEIVFRLGRLNKFKFTNKSNYGYRLSHWGYDALAMNAFIKKELIAGIGGKVGVGKEGDVYHVLLTNHREAVLKFHQLGRTCFSMGKRYREYLANKRHISWLYASRLTAAREFEVLNMLFPVVKVPEPIEQNRHAIIMGKLHGEELKRVNLLEINVDPEEFFWKLMVEVKKTYKLGIIHGDLSEFNILIDSEGDFVIIDWPQAIEVGKKGKLDKLPFEEVEYDEEFYLKRDIENVVRYFKKYGIDKDIDKLYNYVIGDITSENI | not soluble |
| MPSKQDVLLLDYWDQWAEAYRINGKSINTVYRYKLFRKHLKSRFDGRKLNSIRPIEWQKFINDFAAGKDRKEKTTRKRPRERSKDIVTKMNSYVRGMVKAAINERILFSDFTFGTKTSGVRLEHHHHHH | not soluble |
| SEAAETEAEAAALEVLAEVAGILEPVGLQEEAELPAKILVEFVVDSQKKDKLLCSQLQVADFLQNILAQEDTAKGLDPLASEDTSRQKAIAAKEQWKELKATYREHVEAIKIGLTKALTQMEEAQRKRTQLREAFEQLQAKKQMAMEKRRAVQNQWQLQQEKHLQHLAEVSAEVRERKTGTQQELDGVFQKLGNLKQQAEQERDKLQRYQTFLQLLYTLQGKLLFPEAEAEAENLPDDKPQQPTRPQEQSTGDTMGRDPGVSFKAVGLQPAGDVNLP | soluble |
| MSLAAEKLRLVADPWPPFTDALLLNGGLATDIVNTALKRAGYTTLYEQVPWARALLGLSEGRHDVLINAWFSEDRKKIGQFSAEYLLNRIRFIKRKESPIDALTHEQLHHYLIAVVRGYAYSPAFDSDVLLKKVPVQNFSTAVRMLAAERVDLTLEDEYVARYNLALEANEVRARVEFLPGSLSENSLHILVSLKNPHHAKIVADFDREIAAMKADGTYEELLRLHGLQGPPEEGHHHHHH | soluble |
| MVKANVQAIDQLDAEQLGSGMVITDRQLSIVAVSEPTPRWLGFAKNELVGRPVGVLFSAEWSAALLDGIAEAVKKDGCWQGEARHVAKSGKAYTSWMNVYRLSGSEGEWLVWHFVEQTAMPPADRPTTSELLGVIYDSAPFAVVPVAADGTVQDWGLSAERLFGRRKEEAVGRPIWSLFRCGSQTWLPFPPKEQRCGEGMVQRRDGTSANVSYTVIPMLQADGYIVLVEDETKQKQKEAERRRQVELAKKIQQNLLTPLIQNEAVTMDAVYIPSDDLSGDIYACYQIDLYRYGVIVIDVMGHGISSALVSMLLRSLLRGLIVRVIDPVSVASELEKHVQTLFPDEANDIRHLFSMIYLVIDTKERKIEYTNAGHPAGLLVFDDGSVHELDKGGLAIGSPFSLPFEKGVIHYDKRARLLLYTDGILEEIDPSILQSIEKIRSCTQMCRHLPDKRFLERLISQGPPLVSPSDDICLLSITVHG | not soluble |
| MILKASKEALKEAVEILKKGGIIVAPTDTLYGILADATNEEAVKRLYKIRRPSGKPFLVLLPDESWLEKLCLDVKEEHKKLLKVEGLTLVFRKTCDKLDYVSKGTLAVRLPQKGFIRDLLSELKKPVVAPSVNPEGKKPAESVEEAYNYFGNKVDLYIDAGVIKGEPSTILDLTEGVKILREGKVKKEEIEKILNRKL | soluble |
| MGAVNKDVFATGAGQVDPAKVLSPGLVYDATTEDYLKFIQGTGMDLGMEGLGTTQARDMNVPSFALGNLAGKIEVTRTLTALTPGTYRASVNVPGVNVKVTPSVLTFGAPGEKKTFKVQFENNNAALGKFAMGSLNWQGANKTVTSPIAVRPQSVIALEHHHHHH | not soluble |
| VEGRFQLVAPYEPQGDQPQAIAKLVDGLRRGVKHQTLLGATGTGKTFTISNVIAQVNKPTLVIAHNKTLAGQLYSELKEFFPHNAVEYFVSYYDYYQPEAYVPQTDTYIEKDAKINDEIDKLRHSATSALFERRDVIIVASVSCIYGLGSPEEYRELVVSLRVGMEIERNALLRRLVDIQYDRNDIDFRGTFRVRGDVVEIFPASRDEHCIRVEFFGDEIERIRAEVDALTGKVLGEREHVAIFPASHFVTREEKMRLAIQNIEQELEERLAELRAQGKLLEAQRLEQRTRYDLEMMREMGFCSGIENYSRHLALRPPGSTPYTLLDYFPDDFLIIVDESHVTLPQLRGMYNGDRARKQVLVDHGFRLPSALDNRPLTFEEFEQKINQIIYVSATPGPYELEHSPGVVEQIIRPTGLLDPTIDVRPTKGQIDDLIGEIRERVERNERTLVTTLTKKMAEDLTDYLKEAGIKVAYLHSEIKTLERIEIIRDLRLGKYDVLVGINLLREGLDIPEVSLVAILDADKEGFLRSERSLIQTIGRAARNANGHVIMYADTITKSMEIAIQETKRRRAIQEEYNRKHGIVPRTVKKEIRDVIRATYAAEETEMYEAKPAAAMTKQEREELIRTLEAEMKEAAKALDFERAAQLRDIIFELKAEG | soluble |

From the DeepSol protein solubility set
